Measured values: publication PMC8184944, “Crystal structures of aconitase X enzymes from bacteria and archaea provide insights into the molecular evolution of the aconitase superfamily” (Communications Biology, 2021)

Key:
[1] = molecular target: T1, TkAcnX (Thermococcus kodakarensis, UniProt Q5JGJ6+Q5JGJ7); test: X-ray co-crystal structure, […] Å; type: binding; conditions: 40 mM MVA5P in co-crystallization; inactive form with [3Fe-4S] cluster; active site between subunits
T1 construct: gene TK1249; both subunits co-expressed in E. coli (pETDuet-1); His6 tag on small subunit cut off with 3C protease; heterodimer ~24 + ~42 kDa
T1 sequence (Q5JGJ7 whole entry): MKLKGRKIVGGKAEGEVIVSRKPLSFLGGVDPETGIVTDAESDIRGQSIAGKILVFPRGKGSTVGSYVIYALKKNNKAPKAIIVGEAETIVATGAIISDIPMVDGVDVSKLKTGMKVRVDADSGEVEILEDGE
T1 sequence (Q5JGJ6 whole entry): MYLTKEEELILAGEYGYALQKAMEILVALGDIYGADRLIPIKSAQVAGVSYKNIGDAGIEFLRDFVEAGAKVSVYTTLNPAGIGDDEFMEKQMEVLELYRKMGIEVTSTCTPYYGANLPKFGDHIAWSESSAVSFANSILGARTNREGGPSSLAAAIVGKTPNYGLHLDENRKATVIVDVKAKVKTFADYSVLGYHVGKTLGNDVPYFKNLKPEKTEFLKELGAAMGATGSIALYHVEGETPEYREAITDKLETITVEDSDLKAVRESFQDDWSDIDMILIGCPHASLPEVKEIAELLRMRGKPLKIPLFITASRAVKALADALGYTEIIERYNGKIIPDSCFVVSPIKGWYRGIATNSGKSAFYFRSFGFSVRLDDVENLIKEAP

[2] = substrate: O=C(O)[C@H]1NCC[C@H]1O; test: coupled spectrophotometric assay with NADH-dependent Pyr2C reductase; type: biochemical, Agrobacterium fabrum; conditions: free enzyme; coupling with NADH

Molecule | X-ray co-crystal structure, 1.9 Å [1] | Km [2] [µM] | kcat [2] [s⁻¹]
C[C@@](O)(CCOP(=O)(O)O)CC(=O)O [MVA5P] | co-crystallized the wild-type enzyme of TkAcnX (inactive form) with MVA5P | – | –
AtAcnX (Agrobacterium fabrum str. C58) (protein, E. coli BL21(DE3); monomer, ~59 kDa; [2Fe-2S] cluster) MSSAVSTTAAPEARSILAGAAEGKVIATTEALSFWGGVDPATGKVIDVHHPLHGICLTGGVLFMPTSRGSCTGSGVLLDLILTGRAPSALVFCEAEDVLTLGALVAAEMFDKALPVIRLDAETFSRFSRAAHVSIDQNTIKADGVSLAIAPPATAHLDLNDDDRAMLVGRDGIAVRQAMRIIVAMAAQQGASALVDVTQGHIDGCIYASPANLTFAEKMADMGGKVRAPSTMNAISVDKANWRAQGVPEDFGDPAARLADAYVRMGCKPTFTCSPYLLDSAPSAGESIAWAESNAVIFANTVLGARTAKHPDFLDLCIAMTGRAPLSGVYIEENRRPQRIVDVALPAGIDDAFWPLVGYLAGKAAPDCIPLLRGLGAAKPSRDDLKALCAAFGTTSASPMLHIEGATPEAGLAPLETAETVTISLQDMAAAWSLLNDGPEEVQLVAIGSPHASLEECRALAAVFAGRKRRADVAVIVTAGQQVIDAAGKDGTLQSLKDSGVQVLPDLCWCSISEPVFPTKTRALMTNSGKYAHYGPGLSGRAVRFGSLADCVESALTGRAVSRLPVWLS | – | 1160 ± 110 | 33.33 ± 2.77
